Data from the supplement of paper PMC11908140.

B1: library; numbered along this chain (parent)
chain: MRKPRAAVGSGHRKQAASQEGRQKHAKNNSQAKPSACDGLARQPEEVVLQASVSSYHLFRDVAEVTAFRGSLLSWYDQEKRDLPWRRRAEDEMDLDRRAYAVWVSEVMLQQTQVATVINYYTGWMQKWPTLQDLASASLEEVNQLWAGLGYYSRGRRLQEGARKVVEELGGHMPRTAETLQQLLPGVGRYTAGAIASIAFGQATGVVDGNVARVLCRVRAIGADPSSTLVSQQLWGLAQQLVDPARPGDFNQAAMELGATVCTPQRPLCSQCPVESLCRARQRVEQEQLLASGSLSGSPDVEECAPNTGQCHLCLPPSEPWDQTLGVVNFPRKASRKPPREESSATCVLEQPGALGAQILLVQRPNSGLLAGLWEFPSVTWEPSEQLQRKALLQELQRWAGPLPATHLRHLGEVVHTFSHIKLTYQVYGLALEGQTPVTTVPPGARWLTQEEFHTAAVSTAMKKVFRVYQGQQPGTCMGSKRSQVSSPCSRKKPRMGQQVLDNFFRSHISTDAHSLNSAAQ

Variants of: B1
Assay: 8OG:A repair function score (normalized; synonymous = 0, nonsense = -1) (normalized log-likelihood score); higher = more repair activity (WT-like)
Conditions: with 8OG:A DNA repair reporter (GFP) in HEK-293 MUTYH KO cells
Protocol: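 Saturation mutagenesis (NNN codon scan) of the MUTYH cDNA (521-aa nuclear isoform NM_001048174.1 / NP_001041639), stably expressed under doxycycline induction in HEK-293 MUTYH knockout cells. Cells were co-transfected with an 8OG:A-bearing GFP repair reporter plus mCherry and sorted 72 h later into GFP+ and GFP− bins, three replicates per tile. The Rosace log2 enrichment (GFP+ vs GFP−) was converted per tile to a normalized function score with synonymous variants centered at 0 and nonsense variants (codons 1-471) at -1; low-abundance variants were removed.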

Variant | 8OG:A repair function score
C304H | -0.403
P488Y | -0.0629
Q50H | -0.0435
A51V | 0.0738
A51K | 0.124
A51F | -0.116
G401N | 0.111
R154I | -0.971
R154M | -1.16
H410P | -0.371
P352W | -0.38
V427S | -0.925
Q282E | -0.0248
T116R | 0.0298
Q484G | 0.00288
E46W | -0.0064
E92F | -0.016
E92I | -0.0645
G444W | -0.444
P402E | -0.208
P402R | -0.0808
P339D | -0.41
P339M | -0.0671
P339G | -0.00599

Variant | 8OG:A repair function score
Q358H | -0.152
P244Q | -0.604
P365S | -0.116
F59W | -0.25
F59R | -0.753
Q426K | 0.106
Q286P | -0.093
T417N | 0.149
T176L | -0.174
L423S | 0.137
Q394L | -0.0272
V142N | -1.86
G161S | -0.13
L139C | -0.0786
N307R | -0.00117
A99W | -1.08
P331D | -0.501
D94K | -0.193
D77E | -0.0615
C269F | -1.16
C489T | 0.00493
A135V | -0.0536
P299H | 0.0118
H407E | -0.226

Variant | 8OG:A repair function score
V328F | -0.215
G39F | 0.045
A223P | -0.418
A203W | -0.183
K164V | 0.027
D133H | -0.0208
D133V | -0.0608
L183A | -0.0103
K422N | -0.21
C262E | -1.28
S54Q | 0.00389
S54G | 0.00441
P306T | -0.00972
G368E | -0.692
A253L | -1.02
Q111S | -0.201
R87A | -0.0289
S231Q | -0.132
L72Q | -1.44
L72Y | -1.03
E106H | -1.74
E106V | -1.33
Q472P | 0.0113
G471K | 0.0191

Variant | 8OG:A repair function score
G471P | -0.0663
Q78P | -0.138
Q78A | -0.00817
R69H | -1.89
R69E | -3.19
V48F | -0.0263
V48M | -0.0648
C347Y | -0.846
L355I | -0.0806
L355F | -0.0288
W103E | -1.13
L237M | -0.32
V62S | 0.00493
V166E | -0.327
W381K | -0.184
W381C | 0.15
T260G | -0.126
A220C | -0.411
A89W | -0.0308
S52E | -0.00064
I195T | -0.534
S490M | -0.0481
P316D | -0.0567
P316T | -0.057

Variant | 8OG:A repair function score
Q323I | -0.141
Q323P | -0.0158
W146L | -0.263
S71L | -0.00671
S71T | -0.0759
V414K | -0.609
V414T | -0.0984
Q252G | -0.891
R446T | -0.232
R446Y | -0.414
R86A | -0.934
R86N | -1.17
C477M | 0.00893
P494N | 0.0224
E275F | 0.0124
P34V | -0.0896
P34T | -0.0245
L290N | 0.00556
N119I | -0.263
N119C | -0.0452
N119E | -0.069
G475C | 0.00154
T191Q | -0.768
T191W | -1.2

Variant | 8OG:A repair function score
L95R | -0.104
S507R | -0.00355
S507M | -0.0199
V438Q | 0.187
V438M | -0.252
I421F | -0.142
I421T | -0.299
T511A | -0.038
R409M | -0.242
R409F | -0.167
R409W | 0.0733
G193R | -0.0604
G193N | 0.0644
P377N | -0.977
G258Q | -1.21
F505L | 0.0157
E382A | -0.0399
Q397D | -0.0883
G222Q | -0.443
G222R | -0.436
Q386L | 0.304
Q386R | 0.0701
K3R | -0.0184
K3E | -0.174

Variant | 8OG:A repair function score
D243R | -0.99
V165F | -0.802
V165Y | -1.15
A245D | 0.223
A245P | -0.612
Q499S | 0.00646
Q499Y | -0.045
R283I | -0.0881
A305K | -0.0297
Q43M | 0.0733
V206L | -0.338
V206P | -0.905
N366F | -0.0908
K464M | -0.266
H312A | -0.0906
E64Y | -0.98
E64P | -0.284
T204W | -0.109
V284A | 0.00964
K463S | -0.241
K463A | -0.157
K463L | -0.0958
R467T | -0.0575
A456Y | -0.476

Variant | 8OG:A repair function score
L229G | -0.0206
L229R | 0.134
L229H | 0.287
S296P | -0.00535
S296G | -0.0331
L149N | -0.783
L149W | -1.46
E140S | -0.0988
E140C | -0.0271
A254T | -2.58e-05
S515T | -0.00495
C278I | -1.03
E375A | -0.313
S74I | -0.0694
A445M | -0.292
R60T | 0.00688
G326A | -0.264
P247R | -1
P247L | -1.02
Q232C | -0.188
Q232M | -0.355
Q232H | -0.21
Q232F | -0.308
G188K | -1.11

Variant | 8OG:A repair function score
G188S | -0.643
G188T | -1.03
P174F | -0.961
P129S | -0.231
P129A | -0.267
H514F | -0.0319
D502F | -0.0425
R213P | -1.03
R213F | -1.01
T66S | -0.0428
V65R | -0.0229
V65I | -0.000598
R246L | -0.719
C311Q | -0.575
F200N | -0.427
T263C | -0.141
V362F | -0.662
V362I | -0.125
V362K | -0.0434
G236Y | -0.152
K493C | -0.00147
K493M | -0.00762
K493D | 0.0108
L58R | 0.00693

Variant | 8OG:A repair function score
P474H | 0.0269
P474F | 0.0108
P474Q | 0.0183
P474Y | -0.0117
P383H | 0.0207
P383R | 0.0404
F504A | 0.00928
F504N | 0.023
F504E | 0.0256
G412L | -0.855
G356H | -0.148
M93D | 0.0046
L448P | -0.895
V301A | -0.249
A194F | -1.16
A63V | -0.0122
T406M | -0.199
R189Y | -0.336
Q159P | -0.377
A405V | -0.00982
R157Y | -0.068
C216D | -0.949
G297H | 0.00021
G297D | -0.0132

Variant | 8OG:A repair function score
E452N | -0.395
E452W | -0.631
H454P | -0.139
H454A | 0.182
L370W | -0.364
L370M | -0.659
L370A | -0.326
L370S | -0.406
T380M | -0.0793
T380F | 0.194
T380S | 0.139
Q126K | 0.0876
A6L | 0.01
A147W | -0.902
Q470I | 0.00254
Q470M | -0.0791
L369Q | 0.0329
L49Y | -0.0309
L49P | 0.109
A461L | -0.0454
P44R | -0.0646
Y120G | -0.347
L360Q | -0.916
V47L | -0.135

Variant | 8OG:A repair function score
G205N | -0.947
R279Q | -0.155
L184M | -0.281
F376E | -1.28
F376M | -0.13
R482M | -0.00466
V242M | -0.625
N517D | 0.0077
T476H | -0.0339
L313N | -0.337
L313S | -0.292
D82F | -0.22
D82A | -0.0548
L387R | -0.0979
L387K | 0.00861
Q388E | -0.368
G497K | 0.0129
R175K | -0.133
Y425A | -0.637
R97V | 0.00683
R156C | -0.162
R156Y | -0.337
R81P | -0.88
R506F | -0.0582

Variant | 8OG:A repair function score
E342V | -0.0483
P338E | -0.133
K80A | -7.55e-05
Y190H | -0.198
Y190Q | -0.567
V107S | -0.135
L277K | -0.17
L277D | -0.199
M125H | -0.401
L373K | -0.314
D512H | -0.0208
S510G | -0.0202
Q435M | 0.051
Q435K | 0.0819
R332V | -0.216
S344F | -0.0252
A238M | 0.0352
Q202E | -0.0729
S384H | -0.0587
G123A | 0.0469
E178D | -0.000297
P267A | -0.131
P267N | -0.863
E319Y | -0.0495

Variant | 8OG:A repair function score
N143Q | -0.222
V218L | -0.178
K492L | -0.0333
K492C | 0.0201
G309F | 0.0213
V261I | -0.0723
L393Y | -0.503
L393D | -0.369
L349H | -0.39
L349V | -0.0456
L349A | -0.352
L349Y | -0.257
E350C | -0.0435
E350Q | -0.13
S343L | -0.124
Q351E | -0.219
R495N | -0.129
A137M | -0.417
A137R | -0.54
V348M | -0.551
Q233W | -0.0138
G148H | -0.166
